Measurements published in patent publication US9073997B2, “Growth factor antagonists for organ transplant alloimmunity and arteriosclerosis” (VEGENICS PTY LIMITED, priority 2007, dated 2015).

Assays:
VEGF-A 109 = molecular target: T1, VEGF-A 109 (Homo sapiens, UniProt P15692); assay: Receptor fragment/Fc fusion ligand precipitation binding assay, VEGF-A 109; settings: VEGFR-2 Fc fusion constructs; tritiated VEGF-A 109 precipitated, analysis of PAGE gels
T1 construct: fragments with 109 residues each (called VEGF-A 109 and VEGF-C 109); His6 (C); made in house; host or cells: 293T cells (labelled supernatant)
T1 sequence (P15692 with tags, fused parts or gaps): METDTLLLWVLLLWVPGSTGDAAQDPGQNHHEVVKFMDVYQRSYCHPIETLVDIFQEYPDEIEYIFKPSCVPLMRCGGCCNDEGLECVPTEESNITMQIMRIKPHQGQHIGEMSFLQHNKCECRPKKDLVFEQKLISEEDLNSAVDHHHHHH
Text: (§1) The binding assays utilized minimal VEGF-A (SEQ ID NOS: 106 and 107) and VEGF-C (SEQ ID NOS: 108 and 109) fragments with 109 residues each (called VEGF-A 109 and VEGF-C 109). These constructs are not naturally occurring, but are effective for binding assays. Other growth factor constructs, either natural or artificial, may also be used for performing these assays.
(§2) Either Tritiated VEGF-A 109 or VEGF-C 109 was used in a given binding experiment. Ligand in solution was precipitated by mixing […] of ligand solution with 100 μl binding mix at 4° C. overnight, with agitation. The ligand solution may be the supernatant of metabolically labeled 293T cells. The binding mixes used for the receptor binding analysis were as follows: for VEGFR-1 binding assays, the binding mix was phosphate buffered saline (PBS) containing 1.5% BSA, 0.06% Tween 20, 3 μg/ml heparin and 400 ng/ml VEGFR-1-Fc fusion protein (100 μl of this binding mix was added to 200 μl of ligand solution). For VEGFR-2 binding assays, the binding mix was 82% conditioned cell supernatant from 293T cells transiently expressing VEGFR-2-Fc fusion protein in mixture with 18% of a PBS solution that contained 5% BSA, 0.2% Tween 20, and 10 μg/ml heparin (250 μl of binding mix was added to 200 μl of ligand solution). For VEGFR-3 binding assays, the binding mix was 82% conditioned cell supernatant from 293T cells transiently expressing VEGFR-3-Fc fusion protein, 18% of PBS containing 5% BSA, 0.2% Tween 20, and 10 μg/ml heparin (250 μl of binding mix was added to 200 μl of ligand solution). To collect precipitated ligand, 50 μl of a 30% protein A sepharose (PAS, Pharmacia) slurry in PBS was added and incubated under agitation for at least 1.5 hr at 4° C. Standard buffer was added to each immunoprecipitation sample and boiled for 5 minutes at 95° C. during which the immunopreciptated proteins become dissociated from the protein A sepharose. After centrifugation, 10 μl of each sample was analyzed on 15% SDS-PAGE under reducing conditions. The gels were dried and exposed for either 12 hours on phosphorimager plates or 4 weeks on X-ray film.
(§3) Tables 3 and 4 identify constructs by name, a DNA and deduced amino acid sequence from the sequence listing, the portion of VEGFR-2 (SEQ ID NO: 4) or VEGFR-3 (SEQ ID NO: 6) amino acid sequence that was included in the constructs, whether the constructs expressed, and, if tested, whether constructs bound ligand. The table data is compiled from analysis of PAGE gels. The asterisk adjacent to the “B*” indicates a “spill-over” from the adjacent lane, as the origin of the bands seen in the “B” lane. A failure to express under the particular experimental conditions used in this instance should not be interpreted as a failure to bind. The experiments can be repeated using different receptor fragments, binding constructs, ligands, or combinations thereof.

VEGF-C 109 = molecular target: T2, VEGF-C 109 (Homo sapiens, UniProt P49767); assay: Receptor fragment/Fc fusion ligand precipitation binding assay, VEGF-C 109; settings: tritiated VEGF-C 109 precipitated, analysis of PAGE gels
T2 construct: fragments with 109 residues each (called VEGF-A 109 and VEGF-C 109); His6 (C); made in house; host or cells: 293T cells (labelled supernatant)
T2 sequence (P49767 with tags, fused parts or gaps): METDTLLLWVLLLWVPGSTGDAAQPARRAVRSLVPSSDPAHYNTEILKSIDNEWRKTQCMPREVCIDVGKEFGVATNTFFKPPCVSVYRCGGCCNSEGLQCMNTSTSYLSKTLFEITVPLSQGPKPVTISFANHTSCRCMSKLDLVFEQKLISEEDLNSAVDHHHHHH
Text: as §1, §2, §3

VEGF-A165 = molecular target: T3, VEGF-A165 (Homo sapiens, UniProt P15692); assay: Ligand binding analysis of chimeric VEGF receptor/hIgG1Fc fusions, VEGF-A165; settings: for binding to VEGF-A: 35S-labeled VEGF-A165 precipitated with conditioned medium of 293T cells, SDS-PAGE
T3 construct: made in house; host or cells: 293T cells, transient transfection, 35S-labelled conditioned medium
T3 sequence (P15692 27-191 isoform P15692-4): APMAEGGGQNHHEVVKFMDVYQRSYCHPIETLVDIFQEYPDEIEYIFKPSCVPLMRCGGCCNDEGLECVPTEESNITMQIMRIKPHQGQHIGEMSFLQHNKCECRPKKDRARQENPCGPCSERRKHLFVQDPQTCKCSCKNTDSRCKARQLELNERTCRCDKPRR
Protocol: (§4) For expression analysis, the two new chimeric VEGF receptors and control constructs expressing R-1D1-3/hIgG1Fc, R-2D1-3/hIgG1Fc, R-3D1-3/hIgG1Fc, mature VEGF-C and VEGF-A165 were transiently transfected into 293T cells using JetPEI (QBioGene/MP Biomedicals, Irvine, Calif.). Metabolic labeling with ^35S-methionine and ^35S-cysteine was carried out at 48 hours post-transfection and labeling maintained for 24 hours. The serum-free conditioned medium was then immunoprecipitated using Protein A sepharose and either: a) specific antiserum against human mature VEGF-C; b) goat polyclonal antibody against human VEGF-A (R&D systems, Minneapolis, Minn.); or, c) serum-free medium of 293T cells taken 48 to 72 hours post-transient transfection with VEGF receptor/hIgG1Fc proteins (control proteins, R-1D1-3, R-2D1-3, R-3D1-3; chimeric proteins, R-3D1-R2D2+3 and R-3D1-R2D2-R1D3).
(§5) The immunoprecipitated fractions were analyzed on 17% SDS-PAGE and the dried gels were exposed for 12 hours on phosphoimager plates or 36 hours on X-ray films.
(§6) Ligand binding analysis was performed as described for the VEGF-C/VEGF-A hybrid growth factors in Example 1. Briefly, the unlabeled conditioned medium of transiently transfected 293T cells expressing the chimeric VEGFR/IgG1Fc fusion proteins was used to precipitate the ^35S metabolically labeled mature VEGF-C, full-length VEGF-C, and VEGF-A165.

[1] = system: mature VEGF-C, full-length VEGF-C; assay: Ligand binding analysis of chimeric VEGF receptor/hIgG1Fc fusions, VEGF-C; parameters: species or system human; settings: 35S-labeled mature and full-length VEGF-C precipitated with conditioned medium of 293T cells, SDS-PAGE
Protocol: as §4, §5, §6

Sequence of mature VEGF-C, full-length VEGF-C (P49767 112-227 limits assumed): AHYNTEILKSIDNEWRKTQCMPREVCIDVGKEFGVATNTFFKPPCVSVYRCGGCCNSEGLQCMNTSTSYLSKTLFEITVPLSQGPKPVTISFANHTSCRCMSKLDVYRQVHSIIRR

Row | Substance | Binds VEGF-A (VEGF-A 109) | Binds VEGF-C (VEGF-C 109; VEGFR-2 Fc fusion constructs) | Binds VEGF-C (VEGF-C 109; VEGFR-3 Fc fusion constructs) | other results
1 | R-2 I: Fc fusion of VEGFR-2 residues 118-226 with CD33 signal peptide; SEQ ID NOS: 23 and 24 | No | Weak |  | 
2 | R-3 J: Fc fusion of VEGFR-3 residues 1-39, 132-247; SEQ ID NOS: 49 and 50 |  |  | No | 
3 | R-3 I: Fc fusion of VEGFR-3 residues 1-39, 132-329; SEQ ID NOS: 47 and 48 |  |  | No | 
4 | R-3D1-R2D2+3/Ig: chimeric hIgG1Fc fusion: first Ig-like domain of VEGFR-3 and second and third Ig-like domains of VEGFR-2; SEQ ID NO: 125 |  |  |  | binding to VEGF-A (VEGF-A165): not VEGF-A; binding to VEGF-A, second experiment (VEGF-A165; second experiment, 35S-labeled VEGF-A165, SDS-PAGE): only weak binding; binding to VEGF-C [1]: exhibited binding
5 | R-2 D: Fc fusion of VEGFR-2 residues 24-232 with CD33 signal peptide; SEQ ID NOS: 13 and 14 | No | No |  | 
6 | R-2 E: Fc fusion of VEGFR-2 residues 24-241 with CD33 signal peptide; SEQ ID NOS: 15 and 16 | No | No |  | 
7 | R-3 B: Fc fusion of VEGFR-3 residues 138-226 with CD33 signal peptide; SEQ ID NOS: 33 and 34 |  |  | Yes | 
8 | R-2 G: Fc fusion of VEGFR-2 residues 118-326 with CD33 signal peptide; SEQ ID NOS: 19 and 20 | Yes | Yes |  | 
9 | R-3 K: Fc fusion of VEGFR-3 residues 1-39, 132-229; SEQ ID NOS: 51 and 52 |  |  | No | 
10 | R-2 C: Fc fusion of VEGFR-2 residues 24-226 with CD33 signal peptide; SEQ ID NOS: 11 and 12 | No | No |  | 
11 | R-3 G: Fc fusion of VEGFR-3 residues 1-329 (D1-3); SEQ ID NOS: 43 and 44 |  |  | Yes | 
12 | R-2 L: Fc fusion of VEGFR-2 residues 220-326 with CD33 signal peptide; SEQ ID NOS: 29 and 30 | No | No |  | 
13 | R-3 D: Fc fusion of VEGFR-3 residues 1-226; SEQ ID NOS: 37 and 38 |  |  | Yes | 
14 | R-3 C: Fc fusion of VEGFR-3 residues 1-229; SEQ ID NOS: 35 and 36 |  |  | Yes | 
15 | R-2 B: Fc fusion of VEGFR-2 residues 24-220 with CD33 signal peptide; SEQ ID NOS: 9 and 10 | No | No |  | 
16 | R-3D1-R2D2-R1D3/Ig: chimeric hIgG1Fc fusion: first Ig-like domain of VEGFR-3, second of VEGFR-2, third of VEGFR-1; SEQ ID NO: 128 |  |  |  | binding to VEGF-A (VEGF-A165): strongly bound; binding to VEGF-C [1]: strongly bound
17 | R-2 H: Fc fusion of VEGFR-2 residues 118-220 with CD33 signal peptide; SEQ ID NOS: 21 and 22 | No | Yes |  | Binds VEGF-C (VEGF-C 109; VEGFR-2 Fc fusion constructs, listed as R-2H): sufficient for VEGF-C binding
18 | R-2 J: Fc fusion of VEGFR-2 residues 118-232 with CD33 signal peptide; SEQ ID NOS: 25 and 26 | No | Very |  | 
19 | R-3 H: Fc fusion of VEGFR-3 residues 1-134; SEQ ID NOS: 45 and 46 |  |  | No | 
20 | R-2 F: Fc fusion of VEGFR-2 residues 24-122 with CD33 signal peptide; SEQ ID NOS: 17 and 18 | No | No |  | 
21 | R-2 A: Fc fusion of VEGFR-2 (SEQ ID NO: 4) residues 24-326 with CD33 signal peptide; SEQ ID NOS: 7 and 8 | Yes | Yes |  | 
22 | R-2 K: Fc fusion of VEGFR-2 residues 118-241 with CD33 signal peptide; SEQ ID NOS: 27 and 28 | No | No |  | 
